{"source": "paper PMC8389677", "about": "“Time-Resolved Studies of Ytterbium Distribution at Interfacial Surfaces of Ferritin-like Dps Protein Demonstrate Metal Uptake and Storage Pathways” (Biomedicines, 2021)", "proteins": {"B1": {"name": "Listeria innocua Dps (DNA binding protein from starved cells) (natural protein)", "chain": "MKTINSVDTKEFLNHQVANLNVFTVKIHQIHWYMRGHNFFTLHEKMDDLYSEFGEQMDEVAERLLAIGGSPFSTLKEFLENASVEEAPYTKPKTMDQLMEDLVGTLELLRDEYKQGIELTDKEGDDVTNDMLIAFKASIDKHIWMFKAFLGKAPLE", "notes": "Dps (ferritin-like protein) of Listeria innocua; Homo-dodecameric cage; Crystals in space group P41212 have six monomers in the asymmetric unit; Crystals were soaked with 10 mM YbCl3 for 30 or 120 min; PDB 1QGH was the search model for molecular replacement; also called LiDps; Apo-Dps; copies: 12"}}, "target": "the molecule itself", "assay": "crystal structure; apo-LiDps crystals (hanging drop, 100 mM HEPES pH 7.5, 12.5-20.0% PEG 1500, 21 °C) soaked 30 or 120 min in 10 mM YbCl3; space group P41212 with six monomers in the asymmetric unit; data at 100 K"}
{"protein": "B1", "values": [{"measurement": "stoichiometry N", "value": 12}]}
